In patent publication US20130115676 one finds activity (fidelity index) data, which are given here for one substance.

What all share (test): cleavage_in_vitro
Data set [1] has as its target T1, BamHI (Bacillus amyloliquefaciens) (UniProt P23940).
T1 sequence: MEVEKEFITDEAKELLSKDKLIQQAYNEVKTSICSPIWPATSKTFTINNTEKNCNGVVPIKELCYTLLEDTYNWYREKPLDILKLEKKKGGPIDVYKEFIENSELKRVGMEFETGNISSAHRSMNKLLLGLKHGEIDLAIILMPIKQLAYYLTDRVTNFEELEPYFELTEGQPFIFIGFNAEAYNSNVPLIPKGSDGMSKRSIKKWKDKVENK
The conditions noted are these: NEB3, 10 mM MgCl2, 37 C.

Data set [2] deals with BsmBI-HF N185Y/R232A. The following applies: NEB4, 10 mM Mg acetate, 55 C; listed as BsmBI.
Data set [3] relates to T2, BspQI (Bacillus sphaericus).
T2 sequence: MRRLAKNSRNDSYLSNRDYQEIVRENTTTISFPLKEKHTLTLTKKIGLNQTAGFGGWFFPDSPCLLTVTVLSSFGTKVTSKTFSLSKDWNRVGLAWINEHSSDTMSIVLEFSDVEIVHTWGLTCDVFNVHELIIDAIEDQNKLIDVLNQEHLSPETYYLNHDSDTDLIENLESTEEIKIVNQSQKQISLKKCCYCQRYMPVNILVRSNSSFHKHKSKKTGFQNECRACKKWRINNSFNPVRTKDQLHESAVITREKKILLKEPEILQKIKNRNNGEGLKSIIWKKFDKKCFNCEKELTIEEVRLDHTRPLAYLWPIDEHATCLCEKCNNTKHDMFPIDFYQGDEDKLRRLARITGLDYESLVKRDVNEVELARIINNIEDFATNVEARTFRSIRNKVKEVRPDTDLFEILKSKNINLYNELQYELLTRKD
The conditions noted are these: NEB3, 10 mM MgCl2, 50 C.

For data set [4], the system named is BstXI. The conditions noted are these: NEB4, 10 mM Mg acetate, 55 C.
Data set [5] concerns the target EcoRI-HF K62E (Escherichia coli RY13) (UniProt P00642). The conditions noted are these: NEB4, 10 mM Mg acetate, 37 C.
Data set [6] deals with T3, HpaI (Haemophilus parainfluenzae) (UniProt P29537).
T3 sequence: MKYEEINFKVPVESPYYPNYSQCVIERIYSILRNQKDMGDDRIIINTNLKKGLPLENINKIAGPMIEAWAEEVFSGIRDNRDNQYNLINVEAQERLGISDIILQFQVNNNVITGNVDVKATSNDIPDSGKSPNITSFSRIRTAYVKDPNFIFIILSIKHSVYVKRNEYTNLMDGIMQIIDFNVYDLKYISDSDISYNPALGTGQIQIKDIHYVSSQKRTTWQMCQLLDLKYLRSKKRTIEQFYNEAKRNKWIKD
The following applies: NEB4, 10 mM Mg acetate, 37 C.

The test system of data set [7] is T4, NcoI (Nocardia corallina).
T4 sequence: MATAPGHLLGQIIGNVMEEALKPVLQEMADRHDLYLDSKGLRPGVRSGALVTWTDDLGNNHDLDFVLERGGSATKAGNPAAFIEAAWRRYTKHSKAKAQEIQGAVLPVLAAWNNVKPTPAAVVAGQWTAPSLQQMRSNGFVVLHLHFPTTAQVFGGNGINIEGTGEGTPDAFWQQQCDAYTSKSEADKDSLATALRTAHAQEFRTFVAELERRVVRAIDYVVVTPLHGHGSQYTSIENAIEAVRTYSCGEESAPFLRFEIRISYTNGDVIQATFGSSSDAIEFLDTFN
The following applies: NEB1, 10 mM MgCl2, 37 C.

Data set [8] deals with T5, NcoI-HF A2T/R31A (Nocardia corallina).
T5 sequence: T4 sequence with A2T, R31A
The conditions noted are these: NEB4, 10 mM Mg acetate, 37 C.

Data set [9] addresses T6, PstI (Providencia stuartii 164) (UniProt P00640).
T6 sequence: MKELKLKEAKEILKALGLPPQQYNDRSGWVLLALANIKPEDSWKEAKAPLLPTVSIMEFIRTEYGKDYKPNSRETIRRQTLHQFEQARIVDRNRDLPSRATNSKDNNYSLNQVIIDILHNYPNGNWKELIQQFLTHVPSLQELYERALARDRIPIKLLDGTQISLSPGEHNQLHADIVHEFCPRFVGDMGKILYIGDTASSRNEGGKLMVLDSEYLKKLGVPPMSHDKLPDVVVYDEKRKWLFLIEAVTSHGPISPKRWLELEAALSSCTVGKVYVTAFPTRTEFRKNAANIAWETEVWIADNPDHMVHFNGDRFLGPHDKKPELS
The following applies: NEB3, 10 mM MgCl2, 37 C.

The target of data set [10] is T7, ScaI-HF H193A/S201F (Streptomyces caespitosus) (UniProt O52691).
T7 sequence: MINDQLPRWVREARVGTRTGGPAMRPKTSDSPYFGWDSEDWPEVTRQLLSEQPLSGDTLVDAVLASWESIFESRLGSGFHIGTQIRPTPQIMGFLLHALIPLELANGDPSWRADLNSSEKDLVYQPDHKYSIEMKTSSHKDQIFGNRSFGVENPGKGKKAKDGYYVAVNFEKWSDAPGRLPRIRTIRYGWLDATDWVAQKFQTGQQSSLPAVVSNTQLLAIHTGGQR
The conditions noted are these: NEB4, 10 mM Mg acetate, 37 C.

In data set [11] the test system is T8, SspI (Sphaerotilus species).
T8 sequence: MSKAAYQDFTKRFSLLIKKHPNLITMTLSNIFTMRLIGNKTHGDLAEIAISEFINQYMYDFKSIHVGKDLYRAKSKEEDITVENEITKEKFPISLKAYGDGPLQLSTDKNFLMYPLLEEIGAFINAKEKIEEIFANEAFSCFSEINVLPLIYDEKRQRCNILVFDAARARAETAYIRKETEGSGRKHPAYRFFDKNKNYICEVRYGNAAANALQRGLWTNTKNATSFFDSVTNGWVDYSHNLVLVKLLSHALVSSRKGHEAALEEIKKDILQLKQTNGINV
The conditions noted are these: NEB1, 10 mM MgCl2, 37 C.

Residue numbers refer to the chain shown, from its start.

Regarding lambda DNA, the activity (fidelity index) in [1] is 32; in data set [2] it was greater than 500; in [3], 32; in data set [4], 4; in [5], 16000; in data set [6] it was 16. In addition, the activity (fidelity index) in data set [7] was 120; in data set [8], greater than 64000; in data set [9], 120; in data set [10], 1000; in data set [11], 64.
